# Measurements from patent publication CN115057931A (GUANGZHOU YUHENG BIOTECHNOLOGY CO LTD, dated 2022).
# T1: human LAG-3, full length, on transfected cells (human, UniProt P18627 23-525)
# T1 sequence: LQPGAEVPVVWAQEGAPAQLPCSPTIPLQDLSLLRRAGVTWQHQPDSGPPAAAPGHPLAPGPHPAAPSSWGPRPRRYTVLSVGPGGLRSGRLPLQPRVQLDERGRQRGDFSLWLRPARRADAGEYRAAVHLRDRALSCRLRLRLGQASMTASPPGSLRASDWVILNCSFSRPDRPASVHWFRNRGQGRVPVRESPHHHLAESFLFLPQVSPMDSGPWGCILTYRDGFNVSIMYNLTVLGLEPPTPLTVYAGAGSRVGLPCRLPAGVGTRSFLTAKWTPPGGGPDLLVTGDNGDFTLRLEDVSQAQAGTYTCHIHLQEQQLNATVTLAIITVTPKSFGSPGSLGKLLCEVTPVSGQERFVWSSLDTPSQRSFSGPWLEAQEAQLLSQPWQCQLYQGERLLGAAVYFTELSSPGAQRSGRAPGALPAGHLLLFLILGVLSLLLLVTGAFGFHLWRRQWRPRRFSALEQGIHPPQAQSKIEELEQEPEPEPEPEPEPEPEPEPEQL
# T2: mouse LAG-3 on Flp-In-CHO cells (mouse, UniProt Q61790 24-521)
# T2 construct: whole, on cells; also called 鼠LAG-3; 细胞表面小鼠LAG-3
# T2 sequence (looked up): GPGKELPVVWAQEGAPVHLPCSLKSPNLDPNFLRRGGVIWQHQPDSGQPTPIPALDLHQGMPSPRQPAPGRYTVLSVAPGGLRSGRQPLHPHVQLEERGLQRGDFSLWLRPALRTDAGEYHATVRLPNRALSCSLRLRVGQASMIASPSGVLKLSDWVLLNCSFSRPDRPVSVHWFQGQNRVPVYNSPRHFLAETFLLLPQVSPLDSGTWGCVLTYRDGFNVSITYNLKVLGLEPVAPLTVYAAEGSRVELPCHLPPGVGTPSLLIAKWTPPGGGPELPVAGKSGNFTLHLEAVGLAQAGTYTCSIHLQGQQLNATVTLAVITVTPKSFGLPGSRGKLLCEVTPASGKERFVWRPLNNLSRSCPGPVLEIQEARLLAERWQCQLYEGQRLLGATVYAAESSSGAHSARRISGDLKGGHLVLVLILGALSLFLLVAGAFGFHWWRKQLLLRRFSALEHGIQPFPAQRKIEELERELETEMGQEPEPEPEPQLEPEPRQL
# Assays:
# [1] = target: T1, human LAG-3, full length, on …; test: cell-based or functional assay
# [2] = target: T3, cynomolgus LAG-3 on 293F cells (cynomolgus monkey); test: FACS on 293F cells expressing cynomolgus LAG-3
# T3 construct: whole, on cells; also called 食蟹猴LAG-3; 细胞表面食蟹猴LAG-3
# [3] = target: T2, mouse LAG-3 on Flp-In-CHO cells; test: FACS on Flp-In-CHO cells expressing mouse LAG-3
# [4] = target: T4, human CD4 (human, UniProt P01730 26-390, limits assumed); test: ELISA, plate coated with 1 μg/mL human CD4
# T4 construct: also called 人CD4蛋白
binder,measurement,setting,value
"1.53.3-uAb-IgG4k (antibody, V domains shown, Fully human antibody from OMT rats; the other pair 15/16 goes with CDRs 7-12 in CLM-00002) VH: QVQLQQWGAGLLKPSETLSLTCGVYGGSFSGYYWSWIRQPPGMGLEWIGEINHRGNTNYNPSLKSRVTISEDTSKNQFSLRLSSVTAADTAVYFCTRGEDYSDYDYYGDFWGQGTLVTVSS VL: EIVLTQSPATLSLSQGERATLSCRASQSISSYLAWYQQKPGQAPRLLIYAASNRATGIPARFSGSGSGTDFTLTISSLEPEDFAIYYCQQRSNWPLTFGGGTKVEIK","EC50(nM), IL-2 luciferase reporter in Jurkat cells expressing human LAG-3 with Raji cells and SEE",[1],1.07 nM
same,EC50,[2],4.01 nM
same,binding result,[3],no binding
same,binding result,[4],no binding (tested: 1μg/mL)
"3.40.19-uAb-IgG4L (antibody, V domains shown, Fully human antibody from OMT rats; also called 3.40.19-uAb-hIgG4L) VH: QLQLQESGPGLVKPSETLSLTCTVSGDSISSTSYYWGWIRQPPGKGLEWIGSFYYSGSTYYNPSLKSRVTISVDTSKNQFSLKLNSVTAADTAVYYCARMQLWSYDVDVWGQGTTVTVSS VL: QSALTQPASVSGSPGQSITISCTGTSSDVGGYDYVAWYQQHPGKVPKLMIYDVSERPSGVSNRFSGSKSGNTASLTISGLQAEDEADYYCSSYTSTTTLVVFGGGTKLSVL","EC50(nM), IL-2 luciferase reporter in Jurkat cells expressing human LAG-3 with Raji cells and SEE",[1],0.21 nM
same,EC50,[2],3.92 nM
same,binding result,[4],no binding (tested: 1μg/mL)
